Results on four molecules are retold here after US9045527 (WILLIAM MARSH RICE UNIVERSITY, dated 2015).

Experiment [1] addresses T1, CAL PDZ domain (CALP), wild type (UniProt Q9HD26 278-362). The experiment is described as follows: fluorescence anisotropy displacement of a fluorescent reporter peptide; apparent Ki, not significantly different from Rh2(OAc)4. A general note: Fluorescence polarisation rises when a labelled molecule tumbles more slowly, as on binding a larger partner.
Protocol: (§1) Protein binding studies: Fluorescence anisotropy inhibition binding assays were performed using standard procedures. […] Following equilibration, fluorescence anisotropy values were determined using a Tecan Infinite M1000 plate reader (n=3). Inhibitor equilibrium dissociation (Ki) constants were estimated as described. DMSO and rhodium(II) acetate were used as negative controls for unlabeled and labeled peptides, respectively.
The target in experiment [2] is T1, CAL PDZ domain (CALP), wild type. Nature of the experiment: fluorescence anisotropy displacement of a fluorescent reporter peptide.
Protocol: as §1
Another experiment concerns the target CALP-H301A mutant (UniProt Q9HD26 278-362). Described as above.
The next experiment addresses T2, K3a,eRh2 metallopeptide (chain 1 pos 9 (heptad a) and pos 13 (heptad e): Glu side-chain carboxylates bridged by one dirhodium(II) centre, written E. N-terminal acetyl per paragraph 78. C-terminal form not stated.).
T2 peptide: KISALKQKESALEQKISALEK
Nature of the experiment: thermal denaturation of an equimolar mixture, CD.

Where no end group is shown, it is not given here.

Protocol for CALP-H301A mutant: as §1
Protocol for K3a,eRh2 metallopeptide: Temperature denaturation curves were fit to a two-state unfolding model and plotted (black line, S-5) as fraction unfolded vs. temperature as described previously by Lavigne et al.8 Error associated with the non-linear least squared-determined Tm was determined using the freely available "Solver Statistics" macro for Microsoft Excel.

Consider Ac-VQD(dirhodium)TRL-OH (also: dirhodium metal complex at Asp side-chain carboxylate) [VQD^RhTRL metallopeptide], for which the Ki in experiment [1] stood at 6.3 µM.
The molecule Ac-E(dirhodium)WPTSII-OH (also: dirhodium metal complex at Glu side chain) [E^RhWPTSII metallopeptide] gave a Ki in experiment [2] of 1.7 µM.
For the molecule Ac-E(dirhodium)VQSTRL-OH (also: dirhodium metal complex at Glu side-chain carboxylate) [E^RhVQSTRL metallopeptide], the Ki in experiment [2] is 0.56 µM; in the experiment with CALP-H301A mutant, 9.2 µM.
On to Ac-EISALEKCISALEQEISALEK [E3gC peptide], for which the binding result with K3a,eRh2 metallopeptide is recorded as “binds”.
